Target: T1, mouse RAG1 (aa 265-1040) E962Q, His6-MBP fusion (mouse, UniProt P15919 265-1040, E962Q)
T1 sequence (looked up): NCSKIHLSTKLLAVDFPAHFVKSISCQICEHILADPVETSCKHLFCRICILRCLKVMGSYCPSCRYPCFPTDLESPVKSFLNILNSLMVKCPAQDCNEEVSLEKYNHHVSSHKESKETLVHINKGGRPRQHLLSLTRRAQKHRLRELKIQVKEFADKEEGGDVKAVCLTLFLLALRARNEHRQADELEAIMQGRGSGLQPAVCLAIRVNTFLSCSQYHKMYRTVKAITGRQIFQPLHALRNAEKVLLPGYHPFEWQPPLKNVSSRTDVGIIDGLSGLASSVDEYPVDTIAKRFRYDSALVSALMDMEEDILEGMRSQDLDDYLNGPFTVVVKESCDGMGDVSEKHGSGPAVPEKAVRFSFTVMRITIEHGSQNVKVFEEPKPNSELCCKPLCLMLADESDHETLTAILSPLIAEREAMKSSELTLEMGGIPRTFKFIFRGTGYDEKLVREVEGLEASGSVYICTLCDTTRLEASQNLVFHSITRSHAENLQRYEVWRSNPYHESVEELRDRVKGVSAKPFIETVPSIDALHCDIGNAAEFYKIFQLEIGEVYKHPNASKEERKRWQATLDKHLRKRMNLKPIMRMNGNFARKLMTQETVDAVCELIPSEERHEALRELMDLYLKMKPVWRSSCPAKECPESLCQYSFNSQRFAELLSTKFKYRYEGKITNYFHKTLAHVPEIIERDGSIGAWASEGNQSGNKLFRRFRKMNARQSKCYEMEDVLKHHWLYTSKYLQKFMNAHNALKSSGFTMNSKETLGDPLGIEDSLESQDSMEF
Experiment: cryo-EM structure

binding result: binds
B1: mouse RAG2 (aa 1-520) T490A, His6-MBP fusion (domain or fragment, UniProt P21784 1-520, looked up)
chain: MSLQMVTVGHNIALIQPGFSLMNFDGQVFFFGQKGWPKRSCPTGVFHFDIKQNHLKLKPAIFSKDSCYLPPLRYPATCSYKGSIDSDKHQYIIHGGKTPNNELSDKIYIMSVACKNNKKVTFRCTEKDLVGDVPEPRYGHSIDVVYSRGKSMGVLFGGRSYMPSTQRTTEKWNSVADCLPHVFLIDFEFGCATSYILPELQDGLSFHVSIARNDTVYILGGHSLASNIRPANLYRIRVDLPLGTPAVNCTVLPGGISVSSAILTQTNNDEFVIVGGYQLENQKRMVCSLVSLGDNTIEISEMETPDWTSDIKHSKIWFGSNMGNGTIFLGIPGDNKQAMSEAFYFYTLRCSEEDLSEDQKIVSNSQTSTEDPGDSTPFEDSEEFCFSAEATSFDGDDEFDTYNEDDEDDESVTGYWITCCPTCDVDINTWVPFYSTELNKPAMIYCSHGDGHWVHAQCMDLEERTLIHLSEGSNKYYCNEHVQIARALQAPKRNPPLQKPPMKSLHKKGSGKVLTPAKKS
